Experimental data as given in PMC12669963, “PGAM5 cleavage and oligomerization equilibrates mitochondrial dynamics under stress by regulating DRP1 function” (Journal of Cell Science, 2025).

Molecular target: the molecule itself
Test: native gel or EMSA; native-PAGE of U2OS lysates (50 mM Tris-HCl pH 7.4, 150 mM NaCl, 0.5% Triton X-100), steady state or CCCP, immunoblot for endogenous PGAM5

B1: endogenous PGAM5 (natural protein, human (endogenous in HEK293 and U2OS), UniProt Q96HS1 1-289, looked up)
chain: MAFRQALQLAACGLAGGSAAVLFSAVAVGKPRAGGDAEPRPAEPPAWAGGARPGPGVWDPNWDRREPLSLINVRKRNVESGEEELASKLDHYKAKATRHIFLIRHSQYHVDGSLEKDRTLTPLGREQAELTGLRLASLGLKFNKIVHSSMTRAIETTDIISRHLPGVCKVSTDLLREGAPIEPDPPVSHWKPEAVQYYEDGARIEAAFRNYIHRADARQEEDSYEIFICHANVIRYIVCRALQFPPEGWLRLSLNNGSITHLVIRPNGRVALRTLGDTGFMPPDKITRS
notes: endogenous PGAM5; source: endogenous, HEK293 and U2OS lysate
stoichiometry N: 2
